The source of these data is publication PMC8280789.

Some targets named below: C4BP (human); C4b (human); C5b6 (human) (UniProt P13671); C7 (human) (UniProt P10643); C8 (human); C9 (human) (UniProt P02748); fibrinogen (human); laminin (human); plasminogen (human).
Holding throughout (assay): ELISA; dose-response: host component coated (1 μg/well); rLIC13086 at rising concentrations (0–5 μM in the methods; 0–0.5 μM or 0–5 μM in the legends), 2 h at 37°C; detected with HRP-conjugated anti-His mAb; KD from a non-linear fit of the specific binding equation (GraphPad Prism)
(In general: In an ELISA, binding on a coated surface is turned into a signal by an enzyme label.)

Test [1] has as its target plasma fibronectin (human).

Chain of plasma fibronectin (human) (P02751 other isoform, or with tags, fused parts or gaps, chain 1 of 2): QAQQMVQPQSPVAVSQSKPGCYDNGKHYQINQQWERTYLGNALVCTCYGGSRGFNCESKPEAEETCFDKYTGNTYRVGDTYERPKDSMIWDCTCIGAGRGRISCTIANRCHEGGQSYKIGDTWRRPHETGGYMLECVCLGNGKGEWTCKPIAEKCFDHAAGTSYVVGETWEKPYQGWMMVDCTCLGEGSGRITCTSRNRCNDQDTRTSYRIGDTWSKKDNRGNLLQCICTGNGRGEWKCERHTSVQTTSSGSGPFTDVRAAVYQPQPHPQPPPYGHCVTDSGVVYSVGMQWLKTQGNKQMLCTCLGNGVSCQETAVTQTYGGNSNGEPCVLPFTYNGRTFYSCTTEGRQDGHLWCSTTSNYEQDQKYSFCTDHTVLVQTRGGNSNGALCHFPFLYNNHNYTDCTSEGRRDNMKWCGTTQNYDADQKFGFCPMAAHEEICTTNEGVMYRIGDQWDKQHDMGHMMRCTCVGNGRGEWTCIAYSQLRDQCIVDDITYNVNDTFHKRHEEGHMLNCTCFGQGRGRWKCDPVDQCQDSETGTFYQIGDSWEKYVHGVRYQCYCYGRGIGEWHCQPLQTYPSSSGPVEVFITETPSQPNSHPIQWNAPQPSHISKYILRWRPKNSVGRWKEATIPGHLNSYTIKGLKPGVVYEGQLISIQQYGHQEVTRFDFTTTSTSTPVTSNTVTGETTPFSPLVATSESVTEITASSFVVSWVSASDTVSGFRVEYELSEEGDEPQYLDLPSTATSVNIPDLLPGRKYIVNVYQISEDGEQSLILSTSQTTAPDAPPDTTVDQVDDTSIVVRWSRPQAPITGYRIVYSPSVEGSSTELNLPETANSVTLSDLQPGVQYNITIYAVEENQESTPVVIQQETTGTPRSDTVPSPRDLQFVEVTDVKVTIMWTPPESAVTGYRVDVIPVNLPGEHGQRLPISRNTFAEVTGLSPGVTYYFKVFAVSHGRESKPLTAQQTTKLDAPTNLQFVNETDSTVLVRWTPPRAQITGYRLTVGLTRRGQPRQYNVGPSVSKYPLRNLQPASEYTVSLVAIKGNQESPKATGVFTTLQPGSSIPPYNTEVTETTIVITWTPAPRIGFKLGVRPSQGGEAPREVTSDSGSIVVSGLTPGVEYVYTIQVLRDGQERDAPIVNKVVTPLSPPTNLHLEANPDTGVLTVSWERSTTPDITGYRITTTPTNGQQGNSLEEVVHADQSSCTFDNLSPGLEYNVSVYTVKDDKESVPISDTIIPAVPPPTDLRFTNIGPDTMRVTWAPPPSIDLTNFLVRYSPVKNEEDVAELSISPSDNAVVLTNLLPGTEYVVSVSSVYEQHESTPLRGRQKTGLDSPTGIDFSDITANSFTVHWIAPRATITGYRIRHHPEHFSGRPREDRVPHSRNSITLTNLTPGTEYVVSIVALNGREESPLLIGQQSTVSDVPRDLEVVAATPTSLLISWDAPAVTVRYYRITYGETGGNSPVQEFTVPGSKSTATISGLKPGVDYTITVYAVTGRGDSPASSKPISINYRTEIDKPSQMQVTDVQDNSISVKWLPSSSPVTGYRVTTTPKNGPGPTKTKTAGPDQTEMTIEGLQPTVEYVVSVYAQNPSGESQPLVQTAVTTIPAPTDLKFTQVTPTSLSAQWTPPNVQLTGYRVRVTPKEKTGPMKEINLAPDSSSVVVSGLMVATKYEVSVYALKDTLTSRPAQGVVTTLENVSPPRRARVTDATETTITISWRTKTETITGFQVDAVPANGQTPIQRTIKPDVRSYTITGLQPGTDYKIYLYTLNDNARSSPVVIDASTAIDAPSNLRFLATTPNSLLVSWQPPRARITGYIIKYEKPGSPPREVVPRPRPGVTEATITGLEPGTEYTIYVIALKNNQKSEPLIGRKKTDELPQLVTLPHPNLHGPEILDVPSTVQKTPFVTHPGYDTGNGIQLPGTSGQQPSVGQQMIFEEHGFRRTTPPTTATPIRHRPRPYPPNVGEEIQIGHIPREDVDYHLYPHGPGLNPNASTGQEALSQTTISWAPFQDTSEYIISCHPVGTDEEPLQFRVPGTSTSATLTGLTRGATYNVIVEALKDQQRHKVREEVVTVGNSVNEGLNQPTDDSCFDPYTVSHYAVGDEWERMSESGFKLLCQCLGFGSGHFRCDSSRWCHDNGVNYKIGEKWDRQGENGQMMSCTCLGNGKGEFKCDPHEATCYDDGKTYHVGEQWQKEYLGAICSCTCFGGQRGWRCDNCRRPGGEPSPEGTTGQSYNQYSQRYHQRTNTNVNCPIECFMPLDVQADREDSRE
Chain of plasma fibronectin (human) (P02751 other isoform, or with tags, fused parts or gaps, chain 2 of 2): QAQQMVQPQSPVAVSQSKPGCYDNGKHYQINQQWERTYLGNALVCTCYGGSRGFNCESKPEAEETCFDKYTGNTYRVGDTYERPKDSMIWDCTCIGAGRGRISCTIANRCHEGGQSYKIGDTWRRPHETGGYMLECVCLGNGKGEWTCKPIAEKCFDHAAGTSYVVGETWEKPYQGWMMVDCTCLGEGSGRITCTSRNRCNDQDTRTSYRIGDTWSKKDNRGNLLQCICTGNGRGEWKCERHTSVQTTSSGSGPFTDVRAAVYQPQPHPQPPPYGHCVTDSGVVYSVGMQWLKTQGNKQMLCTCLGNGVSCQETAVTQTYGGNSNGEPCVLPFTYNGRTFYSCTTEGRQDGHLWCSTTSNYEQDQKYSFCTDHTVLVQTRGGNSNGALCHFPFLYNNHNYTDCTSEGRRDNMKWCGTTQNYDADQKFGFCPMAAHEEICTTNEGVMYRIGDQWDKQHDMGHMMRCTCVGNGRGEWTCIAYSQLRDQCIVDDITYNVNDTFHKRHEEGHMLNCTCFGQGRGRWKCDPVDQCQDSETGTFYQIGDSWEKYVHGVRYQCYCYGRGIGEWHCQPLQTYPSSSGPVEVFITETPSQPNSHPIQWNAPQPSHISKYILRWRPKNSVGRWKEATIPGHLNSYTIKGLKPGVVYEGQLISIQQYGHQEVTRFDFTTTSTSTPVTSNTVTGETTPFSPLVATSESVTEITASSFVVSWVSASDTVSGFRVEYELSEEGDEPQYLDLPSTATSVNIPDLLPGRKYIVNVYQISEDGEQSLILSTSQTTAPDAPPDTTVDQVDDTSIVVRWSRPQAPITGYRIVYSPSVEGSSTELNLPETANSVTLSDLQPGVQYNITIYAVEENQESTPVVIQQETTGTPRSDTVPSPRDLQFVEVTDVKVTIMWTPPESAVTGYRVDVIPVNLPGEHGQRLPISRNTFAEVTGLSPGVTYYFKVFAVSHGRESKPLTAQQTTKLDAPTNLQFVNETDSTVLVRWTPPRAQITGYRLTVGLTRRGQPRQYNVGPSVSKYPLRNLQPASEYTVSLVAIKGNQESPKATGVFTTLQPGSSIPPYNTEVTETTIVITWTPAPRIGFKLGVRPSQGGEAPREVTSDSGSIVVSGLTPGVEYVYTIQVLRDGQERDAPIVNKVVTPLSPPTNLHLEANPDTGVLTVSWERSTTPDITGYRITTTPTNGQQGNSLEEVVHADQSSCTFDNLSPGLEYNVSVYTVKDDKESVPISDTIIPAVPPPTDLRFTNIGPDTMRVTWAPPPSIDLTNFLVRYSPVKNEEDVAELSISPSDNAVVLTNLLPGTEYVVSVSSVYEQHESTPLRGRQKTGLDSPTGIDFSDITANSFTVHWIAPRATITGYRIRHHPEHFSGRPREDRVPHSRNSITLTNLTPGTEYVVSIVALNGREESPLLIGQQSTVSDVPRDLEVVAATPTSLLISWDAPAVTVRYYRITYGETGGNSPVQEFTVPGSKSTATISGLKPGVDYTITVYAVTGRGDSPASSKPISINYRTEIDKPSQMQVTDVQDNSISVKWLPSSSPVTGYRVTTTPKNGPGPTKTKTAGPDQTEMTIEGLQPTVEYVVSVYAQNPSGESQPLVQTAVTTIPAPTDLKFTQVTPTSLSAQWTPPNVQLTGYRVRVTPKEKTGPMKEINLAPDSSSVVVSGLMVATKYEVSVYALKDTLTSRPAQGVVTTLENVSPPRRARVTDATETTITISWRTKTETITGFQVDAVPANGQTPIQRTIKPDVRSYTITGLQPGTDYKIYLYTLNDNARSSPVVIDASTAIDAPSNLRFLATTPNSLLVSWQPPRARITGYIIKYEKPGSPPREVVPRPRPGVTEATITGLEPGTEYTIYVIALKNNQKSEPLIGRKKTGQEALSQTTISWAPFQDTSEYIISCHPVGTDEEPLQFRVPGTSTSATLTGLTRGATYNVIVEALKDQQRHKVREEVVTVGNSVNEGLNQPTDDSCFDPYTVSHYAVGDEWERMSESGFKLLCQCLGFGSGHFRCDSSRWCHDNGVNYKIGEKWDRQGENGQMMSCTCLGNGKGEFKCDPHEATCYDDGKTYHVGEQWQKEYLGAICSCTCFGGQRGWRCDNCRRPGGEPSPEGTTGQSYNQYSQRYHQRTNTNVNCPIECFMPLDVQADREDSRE
Chain of UniProt P02748 (P02748 22-559): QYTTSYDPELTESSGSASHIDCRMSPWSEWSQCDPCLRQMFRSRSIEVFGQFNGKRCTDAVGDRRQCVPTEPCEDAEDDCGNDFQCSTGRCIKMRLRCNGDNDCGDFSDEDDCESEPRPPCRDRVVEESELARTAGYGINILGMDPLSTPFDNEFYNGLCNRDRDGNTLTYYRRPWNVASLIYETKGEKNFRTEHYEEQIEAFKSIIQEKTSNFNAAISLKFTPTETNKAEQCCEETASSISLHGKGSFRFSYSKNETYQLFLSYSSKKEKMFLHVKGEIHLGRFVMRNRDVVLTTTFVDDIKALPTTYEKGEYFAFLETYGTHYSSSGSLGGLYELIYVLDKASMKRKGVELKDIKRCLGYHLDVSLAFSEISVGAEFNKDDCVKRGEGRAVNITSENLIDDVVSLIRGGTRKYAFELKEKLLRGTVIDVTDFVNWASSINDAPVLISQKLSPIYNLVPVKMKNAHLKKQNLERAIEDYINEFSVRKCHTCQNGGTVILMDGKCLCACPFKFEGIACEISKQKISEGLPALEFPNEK

What is called Kd is the equilibrium constant for the complex coming apart. Read a low Kd as higher affinity. Consider “recombinant protein LIC13086 (natural protein)”, for which the Kd with C4BP (human) was determined as 8.9 nM; in the test with C4b (human), 162 nM; in the test with C5b6 (human), 40.3 nM; with C7 (human), 35.8 nM; with C8 (human), 134 nM; with C9 (human), 818 nM. In addition, the Kd with fibrinogen (human) turned out to be 320 nM; in the test with laminin (human) it was 18.7 nM; in test [1], 5.8 nM; in the test with plasminogen (human) it was 10.1 nM.
